Results taken from patent US20200024330A1.

Assays:
Assay in all cases: cell-based or functional assay
[1] = molecular target: Env of the clade AE HIV-1 pseudoviruses of the cross-clade 162-pseudovirus panel (n = 10)
[2] = molecular target: HIV-1 93IN905 envelope glycoprotein (Env) (HIV-1)
[3] = molecular target: HIV-1 MGRM-C-028 envelope glycoprotein (Env) (HIV-1)
[4] = molecular target: HIV-1 NL43 envelope glycoprotein (Env) (HIV-1)
[5] = molecular target: HIV-1 92RW020 envelope glycoprotein (Env) (HIV-1)
[6] = molecular target: HIV-1 94UG103 envelope glycoprotein (Env) (HIV-1)
[7] = molecular target: HIV-1 MGRM-C-026 envelope glycoprotein (Env) (HIV-1)
[8] = molecular target: HIV-1 93UG077 envelope glycoprotein (Env) (HIV-1)
[9] = molecular target: HIV-1 APV13 envelope glycoprotein (Env) (HIV-1)
[10] = molecular target: HIV-1 JR-CSF Env G324A (HIV-1 isolate JR-CSF) (UniProt P20871)
[11] = molecular target: HIV-1 JRCSF envelope glycoprotein (Env) (HIV-1) (UniProt P20871)

B1: PGT-130 (antibody, V domains shown)
VH: QVQLQESGPGLVKPAETLSLTCSVSGESINTGHYYWGWVRQVPGKGLEWIGHIHYTTAVLHNPSLKSRLTIKIYTLRNQITLRLSNVTAADTAVYHCVRSGGDILYYYEWQKPHWFSPWGPGIHVTVSS
VL: QSALTQPPSASGSLGQSVTISCNGTSSDIGGWNFVSWYQQFPGRAPRLIIFEVNKRPSGVPGRFSGSKSGNSASLTVSGLQSDDEGQYFCSSLFGRWDVVFGGGTKLTVL
With B1 the Median IC50 against viruses neutralized with an IC50 <50 µg/ml [1] was 0.17 µg/mL, the IC50 neutralization [2] was 0.0182 µg/mL and the IC50 neutralization [3] was > 10 µg/mL. For the same binder, the IC50 neutralization [4] was > 10 µg/mL, the IC50 neutralization [5] was 0.014 µg/mL and the IC50 neutralization [6] was 0.635 µg/mL. The IC50 neutralization [7] was 0.0173 µg/mL, the IC50 neutralization [8] was > 10 µg/mL and the IC50 neutralization [9] was 0.0345 µg/mL. The Fold IC50 increase relative to wild-type [10] was > 50 fold and the IC50 neutralization [11] was 0.0089 µg/mL.

B2: PGT-131 (antibody, V domains shown)
VH: QVQLQESGPGLVKPSETLSLTCTVSGDSINTGHHYWGWVRQVPGKGPEWIAHIHYNTAVLHNPALKSRVTISIFTLKNLITLSLSNVTAADTAVYFCVRSGGDILYYIEWQKPHWFYPWGPGILVTVSS
VL: QSALTQPPSASGSLGQSLTISCSGTGSDIGSWNFVSWYQQFPGRAPNLIIFEVNRRRSGVPDRFSGSKSGNTASLTVSGLRSEDEAEYFCSSLSGRWDIVFGGGTKVTVL
In the case of B2, the Median IC50 against viruses neutralized with an IC50 <50 µg/ml [1] is reported as 0.08 µg/mL.
